Test results from publication PMC9245377.

How the values were obtained:
Assay in all cases: ELISA; binding of recombinant InvL to α5β1 integrin, collagen V, fibrinogen, mucin or BSA (negative control); two biological replicates; protocol based on ref. 50, details in the supplemental material
collagen V = target: collagen V
fibrinogen = target: fibrinogen
α5β1 integrin = α5β1 integrin (UniProt P08648)
Chain of UniProt P08648 (P08648 42-1049, chain 1 of 2): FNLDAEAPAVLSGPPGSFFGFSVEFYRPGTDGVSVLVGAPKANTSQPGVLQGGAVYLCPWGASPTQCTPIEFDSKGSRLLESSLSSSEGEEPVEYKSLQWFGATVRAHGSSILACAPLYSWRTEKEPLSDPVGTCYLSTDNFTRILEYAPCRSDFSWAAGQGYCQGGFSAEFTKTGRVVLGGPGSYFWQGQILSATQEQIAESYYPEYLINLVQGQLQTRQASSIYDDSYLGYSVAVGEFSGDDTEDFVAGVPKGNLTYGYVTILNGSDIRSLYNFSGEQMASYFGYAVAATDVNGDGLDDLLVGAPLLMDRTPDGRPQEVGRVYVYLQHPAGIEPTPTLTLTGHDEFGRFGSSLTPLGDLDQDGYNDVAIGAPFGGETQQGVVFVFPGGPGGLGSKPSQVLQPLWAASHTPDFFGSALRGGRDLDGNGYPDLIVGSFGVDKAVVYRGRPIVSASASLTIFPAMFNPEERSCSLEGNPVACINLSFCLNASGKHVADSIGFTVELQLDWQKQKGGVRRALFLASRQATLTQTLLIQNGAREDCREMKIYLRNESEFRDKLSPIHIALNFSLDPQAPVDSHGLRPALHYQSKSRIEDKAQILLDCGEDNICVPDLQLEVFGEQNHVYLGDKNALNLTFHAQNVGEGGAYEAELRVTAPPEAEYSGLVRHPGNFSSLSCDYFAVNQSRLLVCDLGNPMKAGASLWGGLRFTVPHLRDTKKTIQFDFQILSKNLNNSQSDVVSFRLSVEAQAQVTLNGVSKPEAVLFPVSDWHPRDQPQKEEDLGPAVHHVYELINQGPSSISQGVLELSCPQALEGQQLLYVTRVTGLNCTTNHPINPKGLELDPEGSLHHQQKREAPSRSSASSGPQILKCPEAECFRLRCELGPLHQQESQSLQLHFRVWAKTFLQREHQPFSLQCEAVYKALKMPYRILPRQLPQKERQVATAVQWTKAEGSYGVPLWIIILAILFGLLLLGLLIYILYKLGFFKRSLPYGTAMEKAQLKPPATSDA
Chain of UniProt P08648 (P05556 21-798, chain 2 of 2, further chain): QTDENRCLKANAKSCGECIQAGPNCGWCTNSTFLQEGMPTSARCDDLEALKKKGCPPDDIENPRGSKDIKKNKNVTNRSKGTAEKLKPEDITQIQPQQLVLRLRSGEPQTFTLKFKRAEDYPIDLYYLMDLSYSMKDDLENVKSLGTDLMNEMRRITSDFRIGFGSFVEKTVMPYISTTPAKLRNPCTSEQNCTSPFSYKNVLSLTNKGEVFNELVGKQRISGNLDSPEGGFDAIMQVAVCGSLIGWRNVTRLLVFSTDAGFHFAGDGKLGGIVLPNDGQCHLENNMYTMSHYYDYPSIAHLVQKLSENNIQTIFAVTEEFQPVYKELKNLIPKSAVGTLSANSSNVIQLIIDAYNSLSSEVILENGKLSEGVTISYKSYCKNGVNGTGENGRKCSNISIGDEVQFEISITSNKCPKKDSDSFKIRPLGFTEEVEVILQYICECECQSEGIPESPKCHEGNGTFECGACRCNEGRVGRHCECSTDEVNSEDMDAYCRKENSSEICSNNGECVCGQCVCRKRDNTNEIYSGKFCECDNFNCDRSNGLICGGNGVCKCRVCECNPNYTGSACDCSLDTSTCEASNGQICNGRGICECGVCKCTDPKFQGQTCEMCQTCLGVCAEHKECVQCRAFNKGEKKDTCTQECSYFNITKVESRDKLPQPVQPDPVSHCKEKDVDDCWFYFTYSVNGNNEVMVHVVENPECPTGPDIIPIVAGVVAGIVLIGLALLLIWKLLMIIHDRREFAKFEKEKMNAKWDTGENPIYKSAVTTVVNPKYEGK

soluble recombinant InvL lacking the N-terminal signal sequence, with a C-terminal His10 tag (natural protein)
Kd (collagen V): 15000 nM
Kd (fibrinogen): 0.19 nM
Kd (α5β1 integrin): 0.38 nM
